Measured values from patent US20050043235A1 (LICENTIA, published 2005).
Blank lines part the entries; values can stand above or below the binder they belong to.

Tests used:
VEGFR-1-Ig = target: T1, VEGFR-1-Ig (UniProt P17948 27-553); assay: precipitation of 35S-labelled protein with VEGFR-1-Ig, SDS-PAGE (FIG. 5B)
T1 construct: not shown: Ig part of the fusion, not described

neuropilin-1-Ig = target: T2, neuropilin-1-Ig (UniProt O14786 22-856); assay: precipitation of 35S-labelled protein with neuropilin-1-Ig, SDS-PAGE (FIG. 5A)
T2 construct: also called NP1; NP-1; not shown: Ig part of the fusion, not described
T2 sequence (looked up): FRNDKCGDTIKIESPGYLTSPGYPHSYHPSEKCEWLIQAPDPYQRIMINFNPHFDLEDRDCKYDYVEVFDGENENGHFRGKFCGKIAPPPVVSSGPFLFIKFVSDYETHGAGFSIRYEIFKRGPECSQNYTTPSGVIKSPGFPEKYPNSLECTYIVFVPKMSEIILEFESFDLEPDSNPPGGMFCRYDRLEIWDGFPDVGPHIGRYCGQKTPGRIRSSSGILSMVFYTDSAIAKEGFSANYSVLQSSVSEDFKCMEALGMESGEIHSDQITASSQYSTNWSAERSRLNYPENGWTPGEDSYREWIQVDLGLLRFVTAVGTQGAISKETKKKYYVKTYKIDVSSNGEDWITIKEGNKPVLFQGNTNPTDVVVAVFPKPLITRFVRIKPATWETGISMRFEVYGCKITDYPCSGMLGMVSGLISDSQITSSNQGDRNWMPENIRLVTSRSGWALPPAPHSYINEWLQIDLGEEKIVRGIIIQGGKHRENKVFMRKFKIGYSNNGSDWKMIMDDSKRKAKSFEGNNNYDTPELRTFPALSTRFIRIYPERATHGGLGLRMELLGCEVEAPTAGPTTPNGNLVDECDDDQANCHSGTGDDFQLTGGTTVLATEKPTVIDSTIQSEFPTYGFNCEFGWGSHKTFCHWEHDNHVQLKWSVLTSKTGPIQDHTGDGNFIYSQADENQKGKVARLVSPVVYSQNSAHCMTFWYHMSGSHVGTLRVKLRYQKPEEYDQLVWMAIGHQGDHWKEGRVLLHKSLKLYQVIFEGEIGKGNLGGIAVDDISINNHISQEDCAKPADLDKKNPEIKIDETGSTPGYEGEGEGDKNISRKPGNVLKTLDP

T1 sequence (P17948 27-553): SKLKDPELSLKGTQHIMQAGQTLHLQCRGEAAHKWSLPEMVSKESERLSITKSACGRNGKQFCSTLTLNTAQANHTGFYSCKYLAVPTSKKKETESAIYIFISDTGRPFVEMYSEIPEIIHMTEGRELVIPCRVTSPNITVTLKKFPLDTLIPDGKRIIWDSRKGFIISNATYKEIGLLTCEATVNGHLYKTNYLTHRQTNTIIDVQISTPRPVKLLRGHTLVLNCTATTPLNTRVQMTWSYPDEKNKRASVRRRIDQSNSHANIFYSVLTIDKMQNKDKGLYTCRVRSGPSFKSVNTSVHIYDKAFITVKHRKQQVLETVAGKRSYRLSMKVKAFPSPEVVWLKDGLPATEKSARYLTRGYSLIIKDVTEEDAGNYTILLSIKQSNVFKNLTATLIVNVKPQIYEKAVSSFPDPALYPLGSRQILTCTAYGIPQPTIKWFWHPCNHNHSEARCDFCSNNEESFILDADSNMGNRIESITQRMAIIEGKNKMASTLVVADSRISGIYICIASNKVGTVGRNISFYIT

- binding result (VEGFR-1-Ig): no binding
B1: CA65, chimeric protein of the VEGF homology domain of VEGF-C and VEGF exon 7-8 encoded sequences (ligand)
chain: TEETIKFAAAHYNTEILKSIDNEWRKTQCMPREVCIDVGKEFGVATNTFFKPPCVSVYRCGGCCNSEGLQCMNTSTSYLSKTLFEITVPLSQGPKPVTISFANHTSCRCMSKLDVYRQVHSIIRRPCGPCSERRKHLFVQDPQTCKCSCKNTDSRCKARQLELNERTCRCDKPRR
notes: Exon 7-8 is used here; also called pEBS7/CA65; pREP7/CA65

- binding result (VEGFR-1-Ig): no binding
- binding result (neuropilin-1-Ig): no binding
B2: VEGF-CΔNΔC (ligand)
chain: TEETIKFAAAHYNTEILKSIDNEWRKTQCMPREVCIDVGKEFGVATNTFFKPPCVSVYRCGGCCNSEGLQCMNTSTSYLSKTLFEITVPLSQGPKPVTISFANHTSCRCMSKLDVYRQVHSIIRR
notes: also called N C; VEGF-C short form

- binding result (VEGFR-1-Ig): no binding
B3: CA89, chimeric protein of the VEGF homology domain of VEGF-C and VEGF exon 6-8 encoded sequences (ligand)
chain: TEETIKFAAAHYNTEILKSIDNEWRKTQCMPREVCIDVGKEFGVATNTFFKPPCVSVYRCGGCCNSEGLQCMNTSTSYLSKTLFEITVPLSQGPKPVTISFANHTSCRCMSKLDVYRQVHSIIRRKSVRGKGKGQKRKRKKSRYKSWSVPCGPCSERRKHLFVQDPQTCKCSCKNTDSRCKARQLELNERTCRCDKPRR
notes: CA89 is released only with heparin in the medium; also called pEBS7/CA89; pREP7/CA89
